# Reference: patent US8124375B2, “Geraniol synthase, methods of production and uses thereof” (The Regents Of The University Of Michigan, priority 2003, dated 2012)
# B1: Superose12: geraniol synthase purified from basil glands after Superose 12 size exclusion chromatography (protein, UniProt Q6USK1 64-567, looked up)
# Geraniol synthase, …: QHMEESSSKRREYLLEETTRKLQRNDTESVEKLKLIDNIQQLGIGYYFEDAINAVLRSPFSTGEEDLFTAALRFRLLRHNGIEISPEIFLKFKDERGKFDESDTLGLLSLYEASNLGVAGEEILEEAMEFAEARLRRSLSEPAAPLHGEVAQALDVPRHLRMARLEARRFIEQYGKQSDHDGDLLELAILDYNQVQAQHQSELTEIIRWWKELGLVDKLSFGRDRPLECFLWTVGLLPEPKYSSVRIELAKAISILLVIDDIFDTYGEMDDLILFTDAIRRWDLEAMEGLPEYMKICYMALYNTTNEVCYKVLRDTGRIVLLNLKSTWIDMIEGFMEEAKWFNGGSAPKLEEYIENGVSTAGAYMAFAHIFFLIGEGVTHQNSQLFTQKPYPKVFSAAGRILRLWDDLGTAKEEQERGDLASCVQLFMKEKSLTEEEARSRILEEIKGLWRDLNGELVYNKNLPLSIIKVALNMARASQVVYKHDQDTYFSSVDNYVDALFFTQ
# Experiments:
# [1] = Identification of enzymatic products of GES with GDP by SPME GC-MS; format: biochemical; settings: SPME gas chromatogram of the reaction solution, peak identified by MS
# Experimental: GES enzyme assays were also performed by adding 100 μl of enzyme solution with 900 μl assay solution containing 54 μM non-radioactive GDP (Echelon Research Laboratories, Salt Lake City, Utah) and the same buffer described above. The reactions were carried out in an 8 mL DuPont autosampler vial with a white solid-top polypropylene cap (Alltech, Deerfield, Ill.). After letting the reaction proceed for 2-4 hr at 32° C., the liberated compounds were collected with a solid-phase microextraction (SPME) device PDMS-100 with a polydimethylsiloxane fiber (Supelco, Bekkefonte, Pa.) by inserting the fiber into the tube and leaving it in for 20 mim at 42° C. After this incubation step, the solid-phase microextraction fiber was directly injected into the GC-MS.
# [2] = GES enzyme assay (conversion of [1-3H]-GDP, hexane-extractable product counted by scintillation); format: biochemical; settings: GES purification from gland of basil “Sweet Dani” cultivar
# Experimental: GES activity was assayed by incubating 5 μl of the enzyme sample in a final volume of 50 μl buffer containing 50 mM Hepes-KOH, pH 8.0, 1 mM DTE, 0.5 mM MnCI2, 20 mM MgCl2, 10% glycerol and 54 μM [1-3H]-GDP (specific activity 20 Ci/mol, American Radiolabeled Chemicals, St. Louis, Mo.). After incubation for 30 mm at […], 160 μl hexane was added to the tube, and vortexed briefly and centrifuged to separated the phases. The hexane layer was directly placed into a scintillation vial containing 2 ml of nonaqueous scintillation fluid (Econo-Safe, Research Products International, Mount Prospect Ill.). This extraction procedure was repeated twice and the total hexane phase was counted by Liquid Scintillation counter (LS-6500 model, Beckman Coulter, Fullerton, Calif.). Boiled enzyme extracts were used as controls.
molecule,measurement,setting,value
B1,Products of the reaction catalyzed by purified GES with GDP,[1],"Only a single peak was observed, identified as geraniol"
same,Total activity,[2]; activity of the fraction after the named purification step,337.2 ptat
same,Specific activity,[2]; activity per mg protein after the named purification step,6244.2 pkat/mg
